Measured values: PMC3720604

Molecular target: endogenous CK2β (human (endogenous in HeLa)) (UniProt P67870)
Assay: co-IP; lysates (200 ug) of HeLa cells transfected with CK2α-HA or CK2α′-HA; consecutive rounds of immunoprecipitation with anti-CK2β sera and protein A sepharose, or mock control; supernatant and immunoprecipitate blotted for HA and CK2β; NP-40 alternative lysis buffer, 150 mM NaCl, 50 mM Tris pH 7.5

Chain of UniProt P67870 (P67870 whole entry): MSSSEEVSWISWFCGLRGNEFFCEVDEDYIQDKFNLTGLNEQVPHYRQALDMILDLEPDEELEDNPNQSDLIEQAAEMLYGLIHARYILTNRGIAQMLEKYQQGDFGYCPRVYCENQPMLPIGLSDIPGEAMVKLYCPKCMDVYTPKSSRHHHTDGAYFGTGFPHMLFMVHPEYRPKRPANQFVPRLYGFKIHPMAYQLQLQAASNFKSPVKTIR
Chain of CK2α′-HA (P19784 whole entry): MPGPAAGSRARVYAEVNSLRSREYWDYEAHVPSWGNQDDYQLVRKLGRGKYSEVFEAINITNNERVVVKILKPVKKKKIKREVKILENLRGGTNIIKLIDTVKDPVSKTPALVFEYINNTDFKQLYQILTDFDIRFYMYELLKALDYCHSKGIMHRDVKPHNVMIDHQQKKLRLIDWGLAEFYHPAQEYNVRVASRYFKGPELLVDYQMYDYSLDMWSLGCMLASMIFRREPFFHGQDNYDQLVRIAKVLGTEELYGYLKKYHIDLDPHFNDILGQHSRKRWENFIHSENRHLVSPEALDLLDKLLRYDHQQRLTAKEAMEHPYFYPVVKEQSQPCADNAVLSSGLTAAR

CK2α′-HA (from UniProt P19784 1-350) (enzyme)
percent depleted from the lysate by CK2β immunoprecipitation: > 90%
